Laboratory results as given in paper PMC9720954.

Legend:
[1] = biological target: mouse TfR protein (mouse) (UniProt Q62351)
[2] = biological target: Aβ1-40 monomers (UniProt P05067); assay: ELISA; sandwich ELISA; 1 nM Aβ1-40 monomers or 1 nM Aβ1-42 aggregates held by coated rabbit polyclonal antibodies (C-terminal of Aβ, or Aβ1-42); serial dilutions of the recombinant proteins in 0.1% BSA, 0.05% Tween-20 in PBS, 2 h at RT; goat anti-mouse HRP
[3] = biological target: Aβ1-42 aggregates (UniProt P05067); assay: as above
Sequence of Aβ1-42 aggregates (P05067 672-713): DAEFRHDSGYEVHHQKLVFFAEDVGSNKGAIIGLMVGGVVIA

Sequence of Aβ1-40 monomers (P05067 672-711): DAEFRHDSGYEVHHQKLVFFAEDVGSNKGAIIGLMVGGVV

Substance: sNEP-scFc-scFv8D3 (Fc fusion)
- brain uptake (%ID per gram brain tissue) 2 h after intravenous injection of the 125I-labelled protein (0.05 mg/kg) in tg-ArcSwe mice, against sNEP without scFv8D3 [1]: 20 fold
- fold weaker binding than the 3D6 antibody control [2]: 50 fold
- fold weaker binding than the 3D6 antibody control [3]: 100 fold
